In paper PMC3524506:

Test system: OmpR-P-His6 (phosphorylated) (Yersinia enterocolitica O9 Ye9?)
Experiment: EMSA
Conditions: 40 mM Tris-HCl pH 8.0, 100 mM KCl, 10 mM MgCl2, 5% glycerol, room temperature 30 min, scale: fold lower minimum binding amount than non-phosphorylated OmpR

inv promoter fragment 553 bp
binding signal: 3
